No end group written: not given here.
Molecular target: T1, C-terminal domain of Pseudomonas aeruginosa TolA (TolA^224-347) (Pseudomonas aeruginosa, UniProt P50600 224-347)
T1 construct: TolA, Pseudomonas aeruginosa, C-terminal domain, residues 224-347; Uniformly 15N- or 13C/15N-labelled for the NMR experiments, unlabelled for fluorescence anisotropy; also called wild-type TolA (residues 224-347); C-terminal domain of TolA; not shown: His tag, N-terminal, cleaved; Im9, N-terminal, cleaved
T1 sequence (looked up): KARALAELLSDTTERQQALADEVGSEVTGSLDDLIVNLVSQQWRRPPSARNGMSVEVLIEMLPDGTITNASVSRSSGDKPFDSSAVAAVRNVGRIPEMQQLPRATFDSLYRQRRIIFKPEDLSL
Assay: NMR titration; TolB peptide added to 0.6 mM 15N-labelled TolA; 1H,15N-HSQC; 20 mM phosphate, 100 mM NaCl, pH 7.6; slow exchange, ratio of bound and free peak volumes; fits for Ser271, Ser306, Gly316, Leu347
Conditions: both partners purified

B1: P. aeruginosa TolB[22-34] peptide (the TolA box) (peptide)
peptide: ADPLVISSGNDRA-NH2
notes: TolB, Pseudomonas aeruginosa, residues 22-34, the N-terminus of secreted TolB; also called TolB[22-33]; (in supplementary legends); N-terminus of TolB; source: synthetic peptide (thinkpeptides UK (ProImmune))
- Kd: 220 µM

Source: article doi:10.1101/790931, “Pal stabilises the bacterial outer membrane during constriction by a mobilisation-and-capture mechanism” (bioRxiv, 2019)
